Measured values from the DeepSol protein solubility set.

assay: soluble on expression in E. coli; label from the status in PepcDB or PDB records

Q: Which “soluble on expression in E. coli” value does the source give for “STSTFNPRECKLSKQEGQNYGFFLRIEKDTEGHLVRVVEKCSPAEKAGLQDGDRVLRINGVFVDKEEHMQVVDLVRKSGNSVTLLVLDGDSYEKAVKTRVDLKELGQSQKEQGLSDNILSPVMNGGVQTWTQPRLCYLVKEGGSYGFSLKTVQGKKGVYMTDITPQGVAMRAGVLADDHLIEVNGENVEDASHEEVVEKVKKSGSRVMFLLVDKETDKRHVEQKIQFKRETASLKLLPHQPRIVEMKKGSNGYGFYLRAGSEQKGQIIKDIDSGSPAEEAGLKNNDLVVAVNGESVETLDHDSVVEMIRKGGDQTSLLVVDKETDNMYRLAHFSPFLYYQSQELPNGSVKEAPAPTPTSLEVSSPPDTTEEVDHKPKLCRLAKGENGYGFHLNAIRGLPGSFIKEVQKGGPADLAGLEDEDVIIEVNGVNVLDEPYEKVVDRIQSSGKNVTLLVCGKKAYDYFQAKKIPIVSSLADPLDTPPDSKEGIVVESNHDSHMAKERAHSTASHSSSNSEDTEM” here?
A: Its value is “soluble”.

Q: Which “soluble on expression in E. coli” value does the source give for “MHILDIWHRRNSRSYIAHLRSLGIRIGDGCIFRDPLTTRIDVSRPALVSIGSNVDMNTYFQILTHDWASFVFRNKYHDFVNSSGRVEIGSNIYIGTNVIVLRGVTIGDNCVIGAGSVVTHDIPANSVAVGAPCRVVCSLEHHHHHH” here?
A: The value was “not soluble”.

Q: For “MIDSIRVEGFRGLKELELSSLRRINVIVGRNNSGKSTLLEALSLFLGSSDPGTFGNVLHEILIWRGWYGIQTVDDLFYNGGDSFSISSTGKTLEALNSKHSLEFKLNGEPFYKIDRESIRRLASQAVLLARFSPKENFEFLTPLTFRRFGYAESLYSYAYERKVVKDSIKVLNEAYPEVEGFSPLLKEDNWVLYVETKYGVYPYYLMGEGFKSAMIISFLSSLLRDGVLLIDSAEAFHHPKSLKVMIQTLVRGSEKNNVQVFLTTHSLELLDLMLEMGRDGFVIYMKNVEGRIEVESIEFQRASELRESIGVDLRGFLEHHHHHH”, which “soluble on expression in E. coli” value is on record?
A: The value was “soluble”.

Q: With “MSLKGIVFGSGQIGSSVALNLVDGMDVTVADRDPTNLRKIQDNIGSRVSVIQVDALRDDIKHIISDYDIVVSALPGSVGFQFAKSIAPFGVRMIDISYYEDDVFLLDDVAKKSSSVIVPDIGFAPGISNVLVGHFSYELEDVKDVHIYVGGIPEKRIGGLDYVITWSVEGLLDEYTRPVHIVQNGSITQVEPLSGLEKINIQKYTDLEAFYTDGLRTLGKTIRASGSMWEKTVRYSGHAEKIRLLKDLGFFSRKKVKVGNSEIAPFDFTAEIFRNNLSMSGVKDVSLMYVKVTGTRNGDIVKHEASMVAPYDEKRKRSSMANVTSVPASATADFLSKNEIGKYGVVAPEILGKDENFYKQFINYLGQYGIIISEGHHHHHH” as the sequence, how does the “soluble on expression in E. coli” value read?
A: The value was “not soluble”.

Q: Which “soluble on expression in E. coli” value does the source give for “MNKEKEQQLNEALVLFSFAYKTFTEEPDLIIKKYGIQRIHHRILFFVARFPGLSVNELLKLLEISKQALHKPMHILINKGLIFSKESDYDRRIKEIFLTNEGERLEKEISNIQREHLLSIFSQFHNGDEKSWLEIMRQLSLKRLGYAAWNKKK” here?
A: The value was “not soluble”.

Q: Which “soluble on expression in E. coli” value does the source give for “MKSTEKKELSHFRLKLETYLNEHFPEMSGNNPFITARSDEALTAYCDAVAQGFSHPEAESMASEVLYQGLHFSRYDTLVSVLEREFEQELPSPLPERLAPILLKNKAIQSVFAKYDLTDDFEASPEYEHLYTELTGTIVLLIESNHLPTIGGGNDTV” here?
A: Its value is “soluble”.

Q: For “GPGSPPSDPRSLHFYNPYHPNSYIRAMLAVSNVVQEYDSDGMFPVYGFGAVAPFTNGTSHFFPLSGNPSNAYLNGMQAVVDTYAGLLPMLQFSGPTNFAPTIRTITDGARRLRGVYTILLILTDGTITDMQDTIDAIVAADDAPLSIVIIGIGRADFSAMVQLDGDGGVLRDRSNRPARRDLVQFVSFSEFEGKNPARLAAAVLLEIPKQVEVWGRIVHATPGHF”, which “soluble on expression in E. coli” value is on record?
A: The value was “not soluble”.

Q: For “MKGYFETNRIQHIIVDEAQNFHTEDGNWCEKAKGITQGGKACPRMFWIFLDYFQTSHLKESGLPDFELQYPKEELTQVVRNGDKIAEFLQQELGKIRDNPPCSIPRASLNIVHEFKWSQSISGTLKIKYLTSEKMVSYVANKCDVFLSKGYSPQDIAVLFSTDREKKAYEHMFLREMRKKRRASQMNDTSVCHSNMFDRIRRFSGLERSIVFGINPIATEQPISHNLLICLASRAMKYLYILYALTPEGQSSTVAC”, which “soluble on expression in E. coli” value is on record?
A: Its value is “not soluble”.

Q: For “MGSDKIHHHHHHMEVERISGLKFHKKQDVAIVGAGMTTFKRRLNETGRELSYLAVKQALEEAGLTIDDIEMVVMGSAPDAFDGFHMKGEYLLDGSGGSNRPYMRVFVGGGTGVFAPIAGYWHVASGLADVCLVVCEEKMSSVHPHPQSAFKYIWDPILDRPLNPNLIWIFALEMRRYMHVHNIKHEDIALVSVKNKANALDHPCAQVAEKITVEDVLNSEPMALPVRRLDVSPPSDGAAALIMVAPHIARQLTDNPVWVTGVGWALDTTWWTNRDLYFPRYVAEAAKMAYRMAHITDPRKEIDVAEPYDPFDYKELHHMEGLGLAKKGEAPILTREGVTQRDGDLPTCPSGGLLGVGNPIAATMGVKACEIYWQLAYRAGKRQVAKEVTTGVCQAWGDLMQVGTVMVMSNKR”, which “soluble on expression in E. coli” value is on record?
A: Its value is “not soluble”.

Q: Which “soluble on expression in E. coli” value does the source give for “MTNLEIEYKTLLTKNEYNRLLSQMKHVTPVTQTNYYIDTKAFDLKANKMSLRIRTFVNSAELTLKVPEKVGNREYNVPLFLEQAKDMIKHGNLPESTALDIIISKGIKPSALVTFGNLTTVRRETVIPIGKLALDYNLYANTKDYELELEVSDALQGKIDFDSFLSEYHITFKYAKSKVARCINTLKKFNDK” here?
A: Its value is “not soluble”.

Q: With “MSLPHVILTVLSTRDATGYDITKEFSASIGYFWKASHQQVYRELNKMGEQGLVTCVLEPQEGKPDRKVYSITQAGRSALGEWFDQPTAHPTVRDEFSAKLMACSVQSAEPYRLQLAELVEESRKLVAHYQEIEAAYYANPAVLDKQQRLERLTLRRNLLVRQAWIQWADEVLAELNAMA” as the sequence, how does the “soluble on expression in E. coli” value read?
A: Its value is “soluble”.

Q: Which “soluble on expression in E. coli” value does the source give for “MGSDKIHHHHHHMTDEGALFYEHSRRALSEIQNAAALLDQRKINATGRLRMSVPVLFGQLFAAPLMVKFAQQHADLQLEISFNDRNVDLIEEGFDLCIRIGALPDTTQLVAKPIGEHRMLLCASPDYLNKAGPVEHIEDLDQHATIADPHFGQMQKWRLQKENDEPLFIKPKAKLLLNDLQAIKNAALAGAGIAWLPDWLIQNELQDGKLVQVLDAMSSTAFPIHLVWPTLPFMPLKTRLAIDYLAQHLPPELNK” here?
A: The value was “not soluble”.

Q: Which “soluble on expression in E. coli” value does the source give for “MGSDKIHHHHHHLPQLLSAMRGPGTRSPDMPYARKTLAQIRSDAMADIAAALQGSDPLLRFAALKIIGVVLAGMTNEEYGYLDWIAKQTNPFTADDEYLEAWGALKKVYRKDASAASLSATFTGVAGKLLDDGTPVVRSDGATYTTSGTQTVVGTSVTVTIVADVAGAAGNADPGTVVALDIAVDGIQSTGAVIGTVSSGADIEDQEDYRARVLAKYQQPPQGGAAPDYVEWATDVAGVTRAWCAPNGFGAGTVVVYVMLDDAQAAHGGFPQGTDGVSQHDQGPGGLPRGTVATGDQLVVADAIVTLQPGTALVWICSPVENVLSFELTGSAGWSTAIRNAVKAQISDVFFRNGDPRGGTIDRSDINSAIAAVPGTAGFVITSITGVISGTPTTYPANITGSFGSLPVLGEVTFG” here?
A: Its value is “not soluble”.

Q: Which “soluble on expression in E. coli” value does the source give for “MEFTGKIIAILPPRGGVSKTSGNEWKSQEFVIENHDQYPRKMCFDVFGADKIEQFNIQMGEELTVSFDVDARQWNDRWFNSIRAWKVERVGAGAPMTPGAPVPPPAPSATPDFTMGDAKDDLPF” here?
A: The value was “not soluble”.

Q: For “MVRPRTIDRERLLDIAESIISEAGAVTISFGGLAEAAGLSKASVQSVFGTREAMMEALLERWLRKEQRAYQKKIGPQSSLRERVRRHVKITGKESSEANSRLAAVLTALVGSDATEGVMAKWYASRVGKFSAETQEERLLRIAFLAAEGAFFMRHVAGFPMSDRLWRELFHDLLDFVAEPVGGAARSAA”, which “soluble on expression in E. coli” value is on record?
A: Its value is “not soluble”.

Q: Which “soluble on expression in E. coli” value does the source give for “MGSDKIHHHHHHMLDITMFSKADSVKGQGVGSAYLELMRLLRTHWQDEFNIKVNRYGRSAVSHYHTVNPMFYLSTFMPNRGRKIGYVHFLPETLEGSLKLPRPFQMIFNRYLISFYKRMDHIVVVNPTFIPKLEAYHIKRADVTYIPNFVSKREFYEMTKAKQLRLRQQYGYDQNKFMIIGTGQIQDRKGVPDFITLAKQNPDIQFVWAGGFSFGRITDGYQELKQVVDNPPANLSFPGIVPREKLVDYYNMADLFLLPSYNELFPMSVLEAFSCGTPVLLRDLDLYRAIIDGYYQAASDVDDMQRQIDQLSHNPAGLQFLHDKAVLAAQD” here?
A: The value was “not soluble”.

Q: With “MLRQWWLRSVGSCSTVYRAHSGCSTSAAVKPKRAIPTDGLQLSDFIKESTKKQRQKAIIPSIEDTKEYLNPEDLQGNGRTVCYVTYGCQMNVSDMEIVRSIMTKYGFVESDKKENADIVLLMTCSIRDGAEKKVWNQLKLIRSNSVNKGQIVGVLGCMAERVRHDLLEKRNLVNIVAGPDSYRDLPRLVAVAAGGSNGINVQLSLDETYADVQPIRVDSASKTAFISIMRGCDNMCTYCVVPFTRGRERSRPIESIVEEVQRLRDQGYKQVTLLGQNVNSYRDMTSMDFSMAPSTSQEDRVPGFKTVYKPKSGGLTFTTLLEKVADAAPDIRFRFTSPHPKDFPMQLIELIASRPNLCKQLHLPAQSGDDETLERMERGYTRDLYLRLVDDIRHVLPSVSLTSDFIAGFCGETEQAHQNTLSLIRAVRYSFCFVFPYSMRGKTRAHHRLTDDVPEDVKARRHLDLTTVFREEALKLNQALIGSEQTVLLEGKSKRDASFSHGRIDGGVKAVFDNSKLCLEPGQYAKILITDANSQTLKAQLIGQSSI” as the sequence, how does the “soluble on expression in E. coli” value read?
A: Its value is “not soluble”.

Q: With “MTFQNKKILVAGLGGTGISMIAYLRKNGAEVAAYDAELKAERVAQIGKMFDGLVFYTGRLKDALDNGFDILALSPGISERQPDIEAFKQNGGRVL” as the sequence, how does the “soluble on expression in E. coli” value read?
A: The value was “not soluble”.

Q: Which “soluble on expression in E. coli” value does the source give for “MSLQSFENEIAFITGGASGAGFGQAQVFGRAGAKIVVADVRAEAVERAVAALKAEGIVAHGLVLDITDRQAYAGAADEVEQVFGAAPTLLFNTAGVNSFGPVEDTSYDDFDWIVGVNLGGVINGMVTFVPRMIASGRPGHIVTTSSLGGLMGSALAAPYSAAKAAVINLMESYRQGLDKHGIGVSVLCPANIKSNIAEASRLRPAQFGKSGYVENEESIASLHSIHQHGMDPVELAEHVKAGIVANQLYIIPYPEAKDGLRQHFDAIVDAVLPLEADPEGARARTEALNAWAADRARVFMEKNAAQKAEGHHHHHH” here?
A: The value was “not soluble”.

Q: Which “soluble on expression in E. coli” value does the source give for “GMTARNILSYSYEEYVEKITAFHGYPAPGVLIGGFMVDLAVKNLPEGILYDAICETRTCLPDAVQLLTPCTFGNGWLTVLPMGLFAVSLYDKFTGEGVRVFLDVEKMGPWQEIRNWFLKLKTKKEQDSERLFKEIREAGPDILELRNVKLKPGFLEKKHKGKIVLCPQCREAYPAQDGELCLSCQGGSPYL” here?
A: The value was “soluble”.
